What was measured:
Assay in all cases: cell-based or functional assay
HIV-1 Env of CAP256.PI = HIV-1 Env of CAP256.PI (HIV-1)
HIV-1 Env of ZM233.6 = HIV-1 Env of ZM233.6 (HIV-1)
Env of SIVmac251.30 = Env of SIVmac251.30 (SIV (printed as nonHIV))
HIV-1 Env of 0260.v5.c36 = HIV-1 Env of 0260.v5.c36 (HIV-1)
HIV-1 Env of DU422.01 = HIV-1 Env of DU422.01 (HIV-1)
HIV-1 Env of CNE3 = HIV-1 Env of CNE3 (HIV-1)
HIV-1 Env of Q259.d2.17 = HIV-1 Env of Q259.d2.17 (HIV-1)
HIV-1 Env of Q23.17 = HIV-1 Env of Q23.17 (HIV-1)
HIV-1 Env of CAAN.A2 = HIV-1 Env of CAAN.A2 (HIV-1)
HIV-1 Env of DU156.12 = HIV-1 Env of DU156.12 (HIV-1)
HIV-1 Env of QH0692.42 = HIV-1 Env of QH0692.42 (HIV-1)
HIV-1 Env of ZM109.4 = HIV-1 Env of ZM109.4 (HIV-1)
HIV-1 Env of 96ZM651.02 = HIV-1 Env of 96ZM651.02 (HIV-1)
HIV-1 Env of CAP45.G3 = HIV-1 Env of CAP45.G3 (HIV-1)
HIV-1 Env of TRJO.58 = HIV-1 Env of TRJO.58 (HIV-1)
HIV-1 Env of TRO.11 = HIV-1 Env of TRO.11 (HIV-1)
HIV-1 Env of CAP210.E8 = HIV-1 Env of CAP210.E8 (HIV-1)
HIV-1 Env of THRO.18 = HIV-1 Env of THRO.18 (HIV-1)
HIV-1 Env of RHPA.7 = HIV-1 Env of RHPA.7 (HIV-1)
HIV-1 Env of PVO.04 = HIV-1 Env of PVO.04 (HIV-1)
HIV-1 Env of TH976.17 = HIV-1 Env of TH976.17 (HIV-1)
HIV-1 Env of CM244.ec1 = HIV-1 Env of CM244.ec1 (HIV-1)
HIV-1 Env of AC10.29 = HIV-1 Env of AC10.29 (HIV-1)
HIV-1 Env of Q769.d22 = HIV-1 Env of Q769.d22 (HIV-1)
HIV-1 Env of KER2018.11 = HIV-1 Env of KER2018.11 (HIV-1)
HIV-1 Env of ZM197.7 = HIV-1 Env of ZM197.7 (HIV-1)
HIV-1 Env of KER2008.12 = HIV-1 Env of KER2008.12 (HIV-1)
HIV-1 Env of 6405.v4.c34 = HIV-1 Env of 6405.v4.c34 (HIV-1)
HIV-1 Env of RW020.2 = HIV-1 Env of RW020.2 (HIV-1)
HIV-1 Env of ZM135.10a = HIV-1 Env of ZM135.10a (HIV-1)
HIV-1 Env of BG505.w6m = HIV-1 Env of BG505.w6m (HIV-1)
HIV-1 Env of UG037.8 = HIV-1 Env of UG037.8 (HIV-1)
HIV-1 Env of SC422.8 = HIV-1 Env of SC422.8 (HIV-1)
HIV-1 Env of Q168.a2 = HIV-1 Env of Q168.a2 (HIV-1)
HIV-1 Env of WITO.33 = HIV-1 Env of WITO.33 (HIV-1)
HIV-1 Env of CAP244.D3 = HIV-1 Env of CAP244.D3 (HIV-1)
HIV-1 Env of 191821.E6.1 = HIV-1 Env of 191821.E6.1 (HIV-1)
HIV-1 Env of CAP256.SU = HIV-1 Env of CAP256.SU (HIV-1)
HIV-1 Env of 3016.V5.c36 = HIV-1 Env of 3016.V5.c36 (HIV-1)
HIV-1 Env of Q842.d12 = HIV-1 Env of Q842.d12 (HIV-1)
HIV-1 Env of DU172.17 = HIV-1 Env of DU172.17 (HIV-1)
HIV-1 Env of ZM53.12 = HIV-1 Env of ZM53.12 (HIV-1)
HIV-1 Env of ZM214.15 = HIV-1 Env of ZM214.15 (HIV-1)
HIV-1 Env of Q461.e2 = HIV-1 Env of Q461.e2 (HIV-1)
HIV-1 Env of ZM249.1 = HIV-1 Env of ZM249.1 (HIV-1)
HIV-1 Env of MB539.2B7 = HIV-1 Env of MB539.2B7 (HIV-1)
HIV-1 Env of REJO.67 = HIV-1 Env of REJO.67 (HIV-1)
HIV-1 Env of MB201 = HIV-1 Env of MB201 (HIV-1)
HIV-1 Env of 6535.3 = HIV-1 Env of 6535.3 (HIV-1)
HIV-1 Env of C1080.c3 = HIV-1 Env of C1080.c3 (HIV-1)

B1: CAP256-VRC26.06 (antibody, V domains shown)
VH: EVQLIESGGGVVQPGRSLRLSCGASGFSFNNYGMHWVRQAPGKGLEWVAGISFAGIKKYYGTSVKGRFTISRDNSKNNFYLQMNSLRVEDTALYYCARDLRELECEEWTLYNYYDFGSRGPCVDPRGVAGSFDVWGQGTMVTVSS
VL: QSVLTQPPSVSAAPGQKVTISCSGSTSKIGQNSVSWYQQLPGTAPKLLIYENDRRPSGTPDRFSGSKSGTSATLAITGLQTGDEAEYYCETWDGSGGVFGTGTKVTVLG
HIV-1 Env of CAP256.PI
  neutralization IC50: 0.03 µg/mL
HIV-1 Env of ZM233.6
  neutralization IC50: > 50 µg/mL
Env of SIVmac251.30
  neutralization IC50: > 50 µg/mL
HIV-1 Env of 0260.v5.c36
  neutralization IC50: > 50 µg/mL
HIV-1 Env of DU422.01
  neutralization IC50: > 50 µg/mL
HIV-1 Env of CNE3
  neutralization IC50: > 50 µg/mL
HIV-1 Env of Q259.d2.17
  neutralization IC50: > 50 µg/mL
HIV-1 Env of Q23.17
  neutralization IC50: > 50 µg/mL
HIV-1 Env of CAAN.A2
  neutralization IC50: > 50 µg/mL
HIV-1 Env of DU156.12
  neutralization IC50: > 50 µg/mL
HIV-1 Env of QH0692.42
  neutralization IC50: > 50 µg/mL
HIV-1 Env of ZM109.4
  neutralization IC50: > 50 µg/mL
HIV-1 Env of 96ZM651.02
  neutralization IC50: > 50 µg/mL
HIV-1 Env of CAP45.G3
  neutralization IC50: > 50 µg/mL
HIV-1 Env of TRJO.58
  neutralization IC50: > 50 µg/mL
HIV-1 Env of TRO.11
  neutralization IC50: > 50 µg/mL
HIV-1 Env of CAP210.E8
  neutralization IC50: 0.729 µg/mL
HIV-1 Env of THRO.18
  neutralization IC50: 4.25 µg/mL
HIV-1 Env of RHPA.7
  neutralization IC50: > 50 µg/mL
HIV-1 Env of PVO.04
  neutralization IC50: 0.308 µg/mL
HIV-1 Env of TH976.17
  neutralization IC50: > 50 µg/mL
HIV-1 Env of CM244.ec1
  neutralization IC50: > 50 µg/mL
HIV-1 Env of AC10.29
  neutralization IC50: 0.022 µg/mL
HIV-1 Env of Q769.d22
  neutralization IC50: > 50 µg/mL
HIV-1 Env of KER2018.11
  neutralization IC50: > 50 µg/mL
HIV-1 Env of ZM197.7
  neutralization IC50: > 50 µg/mL
HIV-1 Env of KER2008.12
  neutralization IC50: > 50 µg/mL
HIV-1 Env of 6405.v4.c34
  neutralization IC50: > 50 µg/mL
HIV-1 Env of RW020.2
  neutralization IC50: > 50 µg/mL
HIV-1 Env of ZM135.10a
  neutralization IC50: > 50 µg/mL
HIV-1 Env of BG505.w6m
  neutralization IC50: > 50 µg/mL
HIV-1 Env of UG037.8
  neutralization IC50: > 50 µg/mL
HIV-1 Env of SC422.8
  neutralization IC50: 0.178 µg/mL
HIV-1 Env of Q168.a2
  neutralization IC50: > 50 µg/mL
HIV-1 Env of WITO.33
  neutralization IC50: 0.003 µg/mL
HIV-1 Env of CAP244.D3
  neutralization IC50: > 50 µg/mL
HIV-1 Env of 191821.E6.1
  neutralization IC50: > 50 µg/mL
HIV-1 Env of CAP256.SU
  neutralization IC50: 0.055 µg/mL
HIV-1 Env of 3016.V5.c36
  neutralization IC50: > 50 µg/mL
HIV-1 Env of Q842.d12
  neutralization IC50: > 50 µg/mL
HIV-1 Env of DU172.17
  neutralization IC50: > 50 µg/mL
HIV-1 Env of ZM53.12
  neutralization IC50: 0.222 µg/mL
HIV-1 Env of ZM214.15
  neutralization IC50: > 50 µg/mL
HIV-1 Env of Q461.e2
  neutralization IC50: > 50 µg/mL
HIV-1 Env of ZM249.1
  neutralization IC50: > 50 µg/mL
HIV-1 Env of MB539.2B7
  neutralization IC50: > 50 µg/mL
HIV-1 Env of REJO.67
  neutralization IC50: > 50 µg/mL
HIV-1 Env of MB201
  neutralization IC50: > 50 µg/mL
HIV-1 Env of 6535.3
  neutralization IC50: > 50 µg/mL
HIV-1 Env of C1080.c3
  neutralization IC50: > 50 µg/mL
